Source: patent WO2019131769A1 (dated 2019)
Where a chain is given by its changes, count along the chain named. Ends that are not written are not given here.

T1: BSA-modified peptide antigen FFTYHIRHGEVHC (SEQ ID NO: 1) (human, also: BSA carrier conjugate)
T1 construct: also called peptide corresponding to positions 633-644 of PAD4
T1 peptide: FFTYHIRHGEVHC

B1: P1 (antibody, V domains shown)
VH: AVTLDESGGGLQTPGGGLSLICKASGFHMRSYAMNWVRQAPGKGLEFVAGIDNSGRYRNYGAAVKGRATISRDNGQSTVRLQLNNLRAEDTGIYYCAKNFDVGGDGCDWSSGCIDAWGHGTEVIVS
VL: ASTQPSSVSANPGETVKITCSGGSSTYYGWYQQKSPGSAPVTVIYQNTKRPSGLSSRFSGSKSGSTATLTITGVQAEDEAVYFCGGYDTRTYAGIFGAGTTLTVL
notes: Chicken variable regions recombined into mouse chimeric antibody (IgG1) expression vectors; also called anti-PAD4 antibody P1; P1 etc
B2: P3 (antibody, V domains shown)
VH: B1 VH with F27S, H28T, M29I, R58T, F100V, G103A, D105Y, A116T
VL: B1 VL with S6A, Q46E, K49N, G53D, L54I, S55P, E77D, T89R, R90T, T91N
notes: Chicken variable regions recombined into mouse chimeric antibody (IgG1) expression vectors; also called anti-PAD4 antibody P3; P1 etc
B3: P2 (antibody, V domains shown)
VH: B1 VH with G17A, I21V
VL: B1 VL with S6A, K49N, G53D, L54I, S55P, T89R, R90S, T91N
notes: Chicken variable regions recombined into mouse chimeric antibody (IgG1) expression vectors; also called anti-PAD4 antibody P2; P1 etc
B4: P4 (antibody, V domains shown)
VH: B1 VH with H28S, S54T, R58T, N59G, A62S, I93T, F100V, G103A, D105S, I124T
VL: B1 VL
notes: Chicken variable regions recombined into mouse chimeric antibody (IgG1) expression vectors; also called anti-PAD4 antibody P4; P1 etc

Each binder was assayed against T2, human PAD4 (Peptidylarginine deiminase 4) (human, UniProt Q9UM07 1-663) (assay: cell-based or functional assay).
T2 sequence (Q9UM07 whole entry): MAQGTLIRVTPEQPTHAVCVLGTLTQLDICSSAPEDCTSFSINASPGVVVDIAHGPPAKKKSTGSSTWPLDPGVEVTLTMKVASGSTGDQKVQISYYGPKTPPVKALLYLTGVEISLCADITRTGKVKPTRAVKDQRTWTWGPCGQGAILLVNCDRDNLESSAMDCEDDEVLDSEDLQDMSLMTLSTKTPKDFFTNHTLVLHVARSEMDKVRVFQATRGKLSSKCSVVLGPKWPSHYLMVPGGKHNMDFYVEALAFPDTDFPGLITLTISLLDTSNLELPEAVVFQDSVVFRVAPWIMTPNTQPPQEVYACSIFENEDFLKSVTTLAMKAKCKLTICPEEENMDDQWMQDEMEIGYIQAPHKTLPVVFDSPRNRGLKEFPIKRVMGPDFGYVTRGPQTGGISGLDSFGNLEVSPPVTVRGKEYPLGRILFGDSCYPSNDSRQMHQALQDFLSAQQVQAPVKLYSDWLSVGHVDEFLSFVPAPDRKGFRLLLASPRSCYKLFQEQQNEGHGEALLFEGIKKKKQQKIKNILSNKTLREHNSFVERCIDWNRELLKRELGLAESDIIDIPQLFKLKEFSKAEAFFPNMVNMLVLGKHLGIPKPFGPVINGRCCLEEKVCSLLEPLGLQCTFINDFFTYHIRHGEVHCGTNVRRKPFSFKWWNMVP
In the case of B1, the “inhibition rate of citrullinating activity of active PAD4 (BAEE substrate, colorimetric)” value (“inhibition rate” below) is reported as 63%.
In the case of B2, the “inhibition rate” value is reported as 80%.
For B3, the “inhibition rate” value was 62%.
With B4 the “inhibition rate” value was 82%.

Target: T1, BSA-modified peptide antigen …
Assay: ELISA, culture supernatant of CHO cells on immobilised BSA-modified peptide
B2: binds.
B3: binds.

These binders were tested against T2, human PAD4 (Peptidylarginine deiminase …) (assay: SPR (Biacore T200), antibody captured on rabbit anti-mouse polyclonal antibody on CM5 chip, human PAD4 as analyte).
B1 was tested, and the Kd was 73 nM.
For B2, the Kd was 24 nM.
B3 gave a Kd of 31 nM.
With B4 the Kd was 15 nM.
